What all share (conditions): remark: other sources report otherwise
The target in test [1] is T1, 6xHis-tagged lamin A (human, mature form) (human), P02545.
T1 chain: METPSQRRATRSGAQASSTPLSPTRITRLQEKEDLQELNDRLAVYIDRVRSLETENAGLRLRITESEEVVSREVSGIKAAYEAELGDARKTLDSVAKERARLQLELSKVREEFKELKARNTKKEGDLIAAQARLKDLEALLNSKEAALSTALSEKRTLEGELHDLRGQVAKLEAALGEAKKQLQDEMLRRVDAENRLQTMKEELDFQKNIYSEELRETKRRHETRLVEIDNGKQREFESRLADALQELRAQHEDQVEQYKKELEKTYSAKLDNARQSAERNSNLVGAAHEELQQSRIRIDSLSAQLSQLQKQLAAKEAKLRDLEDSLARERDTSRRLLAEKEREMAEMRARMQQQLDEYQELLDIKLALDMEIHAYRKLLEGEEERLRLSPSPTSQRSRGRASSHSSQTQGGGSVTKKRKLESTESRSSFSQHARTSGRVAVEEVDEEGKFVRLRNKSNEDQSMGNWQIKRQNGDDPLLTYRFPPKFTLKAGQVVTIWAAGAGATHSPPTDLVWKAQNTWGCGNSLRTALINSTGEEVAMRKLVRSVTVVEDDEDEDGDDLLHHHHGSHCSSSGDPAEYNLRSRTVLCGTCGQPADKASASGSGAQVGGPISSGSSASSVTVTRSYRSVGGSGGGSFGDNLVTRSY
The test can be described thus: pull-down; Ni-NTA pull-down of a 1:1 mix of un-tagged and 6xHis-tagged lamin A monomers after gel-extraction and refolding.

The target of test [2] is T2, lamin A (human, mature form, without tags, wild type) (human), P02545.
T2 chain: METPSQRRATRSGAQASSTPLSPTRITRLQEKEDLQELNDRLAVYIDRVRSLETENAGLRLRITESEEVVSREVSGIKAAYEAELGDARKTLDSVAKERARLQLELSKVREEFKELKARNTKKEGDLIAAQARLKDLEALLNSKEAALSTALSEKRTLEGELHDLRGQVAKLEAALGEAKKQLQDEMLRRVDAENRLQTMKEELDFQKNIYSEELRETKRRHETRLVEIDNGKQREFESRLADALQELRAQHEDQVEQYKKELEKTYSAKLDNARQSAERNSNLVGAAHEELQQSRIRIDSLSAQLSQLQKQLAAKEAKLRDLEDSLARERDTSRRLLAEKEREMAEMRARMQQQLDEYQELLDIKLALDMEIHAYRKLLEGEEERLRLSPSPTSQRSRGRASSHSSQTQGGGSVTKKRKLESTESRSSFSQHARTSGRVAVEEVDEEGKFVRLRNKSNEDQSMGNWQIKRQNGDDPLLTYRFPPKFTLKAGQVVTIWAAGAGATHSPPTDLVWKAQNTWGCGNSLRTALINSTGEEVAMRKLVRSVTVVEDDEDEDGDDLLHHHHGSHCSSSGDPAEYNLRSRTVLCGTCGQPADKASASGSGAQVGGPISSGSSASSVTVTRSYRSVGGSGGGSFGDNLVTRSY
The test can be described thus: AUC; sedimentation velocity, 0.3 mg/mL lamin A in Tris or NaPi buffer, 45,000 rpm, 20 °C, interference optics, c(s) model.

In test [3] the target is T2, lamin A (human, mature form, without …). The test can be described thus: rotary metal shadowing EM; un-cross-linked lamin A at 0.1 mg/mL in Tris buffer (25 mM Tris, 250 mM NaCl, pH 8.0) or NaPi buffer (100 mM NaPi, 250 mM NaCl, pH 8.0), 30% glycerol, sprayed on mica; dimers and head-to-tail tetramers.
Test [4] shares this target. Put plainly: AUC; sedimentation velocity, 0.3 mg/mL lamin A in Tris or NaPi buffer, 45,000 rpm, 20 °C, interference optics, c(s) model.
Test [5] has the same target. Put plainly: cross-linking; 0.4 mg/mL lamin A in NaPi buffer, EDC:S-NHS (1:4:8.8 by weight lamin A:EDC:S-NHS), 30 min, room temperature; product bands resolved by SDS-PAGE, gel-extracted and seen by rotary metal shadowing EM.

Values joined by “and” are separate entries in the source; they are usually repeats but may differ in a detail not shown here. Equal values may be shown once.

B1: lamin A (human, mature form, without tags, wild type), P02545 1-646 (natural protein)
chain: METPSQRRATRSGAQASSTPLSPTRITRLQEKEDLQELNDRLAVYIDRVRSLETENAGLRLRITESEEVVSREVSGIKAAYEAELGDARKTLDSVAKERARLQLELSKVREEFKELKARNTKKEGDLIAAQARLKDLEALLNSKEAALSTALSEKRTLEGELHDLRGQVAKLEAALGEAKKQLQDEMLRRVDAENRLQTMKEELDFQKNIYSEELRETKRRHETRLVEIDNGKQREFESRLADALQELRAQHEDQVEQYKKELEKTYSAKLDNARQSAERNSNLVGAAHEELQQSRIRIDSLSAQLSQLQKQLAAKEAKLRDLEDSLARERDTSRRLLAEKEREMAEMRARMQQQLDEYQELLDIKLALDMEIHAYRKLLEGEEERLRLSPSPTSQRSRGRASSHSSQTQGGGSVTKKRKLESTESRSSFSQHARTSGRVAVEEVDEEGKFVRLRNKSNEDQSMGNWQIKRQNGDDPLLTYRFPPKFTLKAGQVVTIWAAGAGATHSPPTDLVWKAQNTWGCGNSLRTALINSTGEEVAMRKLVRSVTVVEDDEDEDGDDLLHHHHGSHCSSSGDPAEYNLRSRTVLCGTCGQPADKASASGSGAQVGGPISSGSSASSVTVTRSYRSVGGSGGGSFGDNLVTRSY
Molecule B1 registered a percent of un-tagged lamin A retained on the beads in test [1] of 50%. The stoichiometry N in test [2] was 2; in test [3], 2 and 4; in test [4], 4; in test [5] it was 2 and 4. The same molecule registered a dimers seen per head-to-tail tetramer (EM) (dimers per tetramer) in test [3] of 20 to 25.

For the origin of these results see article PMC6624373.
